The source of these data is patent publication US20100278832A1 (Chugai, published 2010).

For orientation: Kd means the constant that tells how readily two partners part at equilibrium.

Assay [1] deals with BST2 on human myeloma-derived RPMI8226 cells (human) (UniProt Q10589). Briefly: flow cytometry on RPMI8226 cells, Kd calculated with Prism 4 from percentage of staining at 0.01-10 µg/ml.
Assay [2] concerns the target T1, human BST2H (human).
T1 construct: Expressed from pcDNA3.1-hBST2H on CHO-K1 cells (BST2H-CHO line); Splicing variant H, 158 residues; also called type H BST2; BST2H-CHO cells
T1 chain: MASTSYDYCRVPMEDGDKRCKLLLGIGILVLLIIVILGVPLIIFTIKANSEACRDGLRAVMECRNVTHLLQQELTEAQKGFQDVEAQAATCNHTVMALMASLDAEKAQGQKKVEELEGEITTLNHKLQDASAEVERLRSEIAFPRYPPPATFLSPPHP
As to the kind of experiment: flow cytometry on BST2H-CHO cells.

Assay [3] deals with T2, His-tagged recombinant human BST2 protein E(135)-Q(180) (human, UniProt Q10589 135-180, not fully specified).
T2 construct: Expressed in E. coli BL21(DE3); denatured and reduced for Western blotting; also called lane 8: E(135)-----Q(180); not shown: N-terminal His tag supplied by vector pET32
T2 chain: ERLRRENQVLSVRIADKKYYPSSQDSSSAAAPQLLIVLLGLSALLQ
As to the kind of experiment: Western blot of His-tagged BST2 fragment. On the procedure:
(§1) The His-tagged human BST2 proteins (synthesized as described in A) were each dissolved in sample buffer, and heated at 70° C. for ten minutes. The dissolved proteins were fractionated on a 4-20% SDS-PAGE gradient gel (Invitrogen) and transferred onto PVDF membrane (Millipore). The membrane was blocked with BSA and incubated with 1 μg/ml antibody 4LD or 2000× diluted anti-His tag antibody (Novagen). After reaction with an HRP-labeled anti-mouse IgG antibody (Jackson), ECL Detection Reagent (GE Healthcare) was reacted for chemical luminescence, and the His-tagged human BST2 proteins were detected using LAS-1000 from Fuji Film.
For orientation: Immunoblotting shows a protein as a band on a membrane.

Assay [4] addresses T3, His-tagged recombinant human BST2 protein K(47)-S(145) (human, UniProt Q10589 47-145).
T3 construct: Expressed in E. coli BL21(DE3); denatured and reduced for Western blotting; also called lane 9: K(47)-S(145); not shown: N-terminal His tag supplied by vector pET32
T3 sequence: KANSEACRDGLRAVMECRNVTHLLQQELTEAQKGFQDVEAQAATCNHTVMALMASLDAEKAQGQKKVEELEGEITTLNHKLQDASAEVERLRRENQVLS
As to the kind of experiment: Western blot of His-tagged BST2 fragment. On the procedure: as §1

Assay [5] concerns the target T4, His-tagged recombinant human BST2 protein V(134)-Q(180) (human, UniProt Q10589 134-180, not fully specified).
T4 construct: Expressed in E. coli BL21(DE3); denatured and reduced for Western blotting; also called lane 7: V(134)----Q(180); not shown: N-terminal His tag supplied by vector pET32
T4 chain: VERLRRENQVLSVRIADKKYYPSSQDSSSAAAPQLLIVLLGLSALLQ
Briefly: Western blot of His-tagged BST2 fragment. Here is the method: as §1

The target of assay [6] is T5, His-tagged recombinant human BST2 protein L(137)-Q(180) (human, UniProt Q10589 137-180, not fully specified).
T5 construct: Expressed in E. coli BL21(DE3); denatured and reduced for Western blotting; also called lane 10: L(137)-------Q(180); not shown: N-terminal His tag supplied by vector pET32
T5 chain: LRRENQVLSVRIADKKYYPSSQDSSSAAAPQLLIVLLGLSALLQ
As to the kind of experiment: Western blot of His-tagged BST2 fragment. Here is the method: as §1

For assay [7], the target named is T6, His-tagged recombinant human BST2 protein R(136)-Q(180) (human, UniProt Q10589 136-180, not fully specified).
T6 construct: Expressed in E. coli BL21(DE3); denatured and reduced for Western blotting; also called lane 9: R(136)------Q(180); not shown: N-terminal His tag supplied by vector pET32
T6 chain: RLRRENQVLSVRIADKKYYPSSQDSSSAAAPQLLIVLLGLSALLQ
Briefly: Western blot of His-tagged BST2 fragment. Here is the method: as §1

For assay [8], the target named is T7, His-tagged recombinant human BST2 protein K(47)-V(146) (human, UniProt Q10589 47-146).
T7 construct: Expressed in E. coli BL21(DE3); denatured and reduced for Western blotting; also called lane 8: K(47)--V(146); not shown: N-terminal His tag supplied by vector pET32
T7 sequence: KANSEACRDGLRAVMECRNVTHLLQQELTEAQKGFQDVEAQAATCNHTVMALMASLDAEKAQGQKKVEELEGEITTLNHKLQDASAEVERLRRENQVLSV
Briefly: Western blot of His-tagged BST2 fragment. Here is the method: as §1

The target of assay [9] is T8, human BST2D (human, UniProt Q10589 1-161).
T8 construct: Transmembrane glycoprotein, splicing variant D, 180 residues; also called type D BST2; BST2D-CHO cells
As to the kind of experiment: flow cytometry of hybridoma supernatant on 293T cells expressing human BST2D. On the procedure:
The hybridoma culture supernatants were analyzed by flow cytometry (FCM). The cells prepared as described in A of Example 1 were suspended in 0.5% BSA/2 mM EDTA/PBS, and collected into centrifuge tubes at 1×10⁵ cells/sample. 40 μl of each hybridoma culture supernatant was added, and the tubes were incubated at room temperature for 30 minutes. Then, a 1-ml aliquot of 0.5% BSA/2 mM EDTA/PBS was added to each tube, the tubes were centrifuged for three minutes at 1200 rpm and 4° C., and the supernatants were discarded; this washing process was repeated twice. A 40-μl aliquot of 100× diluted FITC-labeled goat anti-mouse IgG antibody (Beckman coulter; IM0819) was added to each tube after washing. The tubes were incubated at room temperature for 30 minutes. Following two rounds of washing, the hybridoma culture supernatants were analyzed with flow cytometer FC500 (Beckman coulter) to assess whether the antibody in the supernatants could specifically recognize human BST2D. […] The selected hybridomas were cloned by the limiting dilution method. The resulting hybridomas producing mouse anti-human BST2 antibody were named #3LD, #4LD, #7LD, #9LD, and #19LD.
In general terms: Flow cytometry measures light scatter and fluorescence of single cells or particles in a stream.

The target of assay [10] is T9, His-tagged recombinant human BST2 protein K(47)-P(155) (human, UniProt Q10589 47-155).
T9 construct: Expressed in E. coli BL21(DE3); denatured and reduced for Western blotting; also called lane 3: K(47)----------P(155); not shown: N-terminal His tag supplied by vector pET32
T9 sequence: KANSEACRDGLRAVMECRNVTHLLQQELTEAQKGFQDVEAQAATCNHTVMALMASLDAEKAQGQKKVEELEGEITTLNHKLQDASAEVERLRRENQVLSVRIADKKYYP
Briefly: Western blot of His-tagged BST2 fragment, 1 µg/ml antibody. Here is the method: as §1

The target in assay [11] is T10, His-tagged recombinant human BST2 protein E(133)-Q(180) (human, UniProt Q10589 133-180, not fully specified).
T10 construct: Expressed in E. coli BL21(DE3); denatured and reduced for Western blotting; not shown: N-terminal His tag supplied by vector pET32
T10 chain: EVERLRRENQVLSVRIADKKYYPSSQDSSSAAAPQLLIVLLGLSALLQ
The assay is described as above. Here is the method: as §1

Assay [12] has as its target T11, His-tagged recombinant human BST2 protein S(131)-Q(180) (human, UniProt Q10589 131-180, not fully specified).
T11 construct: Expressed in E. coli BL21(DE3); denatured and reduced for Western blotting; also called lane 4: S(131)-Q(180); not shown: N-terminal His tag supplied by vector pET32
T11 chain: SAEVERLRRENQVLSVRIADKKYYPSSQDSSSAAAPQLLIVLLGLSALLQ
The assay is described as above. On the procedure:
as §1

Assay [13] addresses T12, His-tagged recombinant human BST2 protein A(132)-Q(180) (human, UniProt Q10589 132-180, not fully specified).
T12 construct: Expressed in E. coli BL21(DE3); denatured and reduced for Western blotting; also called lane 5: A(132)--Q(180); not shown: N-terminal His tag supplied by vector pET32
T12 chain: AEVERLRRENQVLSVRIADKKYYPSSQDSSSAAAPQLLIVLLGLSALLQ
Described as above. Here is the method: as §1

For assay [14], the target named is T13, His-tagged recombinant human BST2 protein K(47)-R(147) (human, UniProt Q10589 47-147).
T13 construct: Expressed in E. coli BL21(DE3); denatured and reduced for Western blotting; not shown: N-terminal His tag supplied by vector pET32
T13 sequence: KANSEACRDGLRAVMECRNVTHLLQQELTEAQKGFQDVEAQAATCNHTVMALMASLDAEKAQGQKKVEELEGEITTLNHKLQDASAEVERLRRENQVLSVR
Described as above. Here is the method: as §1

Assay [15] concerns the target T14, His-tagged recombinant human BST2 protein K(47)-D(150) (human, UniProt Q10589 47-150).
T14 construct: Expressed in E. coli BL21(DE3); denatured and reduced for Western blotting; also called lane 4: K(47)------D(150); not shown: N-terminal His tag supplied by vector pET32
T14 sequence: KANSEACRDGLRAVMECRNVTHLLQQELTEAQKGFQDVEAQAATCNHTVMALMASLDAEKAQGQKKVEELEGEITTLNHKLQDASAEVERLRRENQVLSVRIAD
The assay is described as above. On the procedure:
as §1

Assay [16] addresses T15, His-tagged recombinant human BST2 protein K(47)-I(148) (human, UniProt Q10589 47-148).
T15 construct: Expressed in E. coli BL21(DE3); denatured and reduced for Western blotting; also called lane 6: K(47)----I(148); not shown: N-terminal His tag supplied by vector pET32
T15 sequence: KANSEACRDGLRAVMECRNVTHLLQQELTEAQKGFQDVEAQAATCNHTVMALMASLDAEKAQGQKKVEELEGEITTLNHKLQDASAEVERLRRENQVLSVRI
Described as above. Here is the method: as §1

Assay [17] has as its target T16, His-tagged recombinant human BST2 protein K(47)-A(149) (human, UniProt Q10589 47-149).
T16 construct: Expressed in E. coli BL21(DE3); denatured and reduced for Western blotting; also called lane 5: K(47)-----A(149); not shown: N-terminal His tag supplied by vector pET32
T16 sequence: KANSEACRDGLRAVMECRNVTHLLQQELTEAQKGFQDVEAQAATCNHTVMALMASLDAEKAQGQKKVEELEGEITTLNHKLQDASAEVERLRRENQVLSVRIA
The description is as above. On the procedure: as §1

B1: mouse anti-human BST2 monoclonal antibody #4LD (antibody, V domains shown)
VH: DVQLQESGPGLVKPSQSLSLTCSVTGYSITSGYYWNWIRQFPGNKLEWMGYISYDGSNNYNPSLKNRISITRDTSKNQFFLKLNSVTTEDTATYYCAILGRGYWGQGTTLTVSS
VL: DIVLTQSPASLAVSLGQRATISCRASQSVSTSSYSYMHWYQQKPGQPPKLLIKYASNLESGVPARFSGSGSGTDFTLNIHPVEEEDTATYYCQHSWEIPYTFGGGTKLEIK
notes: Purified from hybridoma #4LD (FERM BP-10964); also called mouse antibody #4LD; anti-human BST2(D+/H-) antibody
Regarding B1, in assay [1], the Kd was 0.1 nM. Moreover, the binding result in assay [2] was “no binding”; in assay [3], “no binding (tested: 1 µg/ml)”; in assay [4], “no binding (tested: 1 µg/ml)”; in assay [5] it was “no binding (tested: 1 µg/ml)”; in assay [6], “no binding (tested: 1 µg/ml)”; in assay [7], “no binding (tested: 1 µg/ml)”. Moreover, the binding result in assay [8] is listed as “no binding (tested: 1 µg/ml)”; in [9] it was “binds”; in assay [10], “binds”; in [11] it was “binds”; in assay [12], “binds”; in [13], “binds”. Moreover, the binding result in assay [14], in [15], in [16] and in assay [17] was “binds” throughout.
